The target in this series is T1, OR7D4 (Homo sapiens, UniProt Q8NG98, D296E/E302K/G299D).
T1 construct: Improved functional expression of modified OR-genes containing the truncated, optimized C-terminus; expressed in transfected cells
T1 sequence (Q8NG98 with tags, fused parts or gaps D296E/G299D/E302K): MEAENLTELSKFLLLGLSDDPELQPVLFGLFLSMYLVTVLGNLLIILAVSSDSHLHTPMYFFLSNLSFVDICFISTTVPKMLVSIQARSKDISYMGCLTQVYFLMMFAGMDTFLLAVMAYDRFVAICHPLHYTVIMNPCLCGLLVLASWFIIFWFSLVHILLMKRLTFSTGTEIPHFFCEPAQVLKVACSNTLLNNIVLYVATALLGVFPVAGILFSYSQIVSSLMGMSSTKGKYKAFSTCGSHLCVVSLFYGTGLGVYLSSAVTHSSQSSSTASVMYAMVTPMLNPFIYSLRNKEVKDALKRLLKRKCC
The series is described as follows: CRE-luciferase assay, HEK cells expressing OR7D4 (wild-type / modified C-terminus). The series is classed as cell-based. The following applies: for EC2 (concentration for 2-fold luciferase induction) / EC2 Fold-improvement vs. wild-type / Fold induction luciferase: OR7D4 variant; for EC2 (concentration for 2-fold luciferase induction) / EC2 Fold-improvement vs. wild-type: Androstenone. The text has this: Random permutations of the general C-terminal sequence RN[KR][EDQ][VMIL][KR]KA[LIV][KRH][KR][LI][LIF][KRG][KR][KR]CC (SEQ ID NO: 822) linked to OR7D4 were generated based on degenerate oligonucleotides for the C-terminal domain. For this experiment, the MfeI/XhoI fragment from pcDNA3.1(+)-mmLucy-FLAG-rho-OR7D4 containing the CMV promoter and the OR coding sequence was used to replace the EcoRI/SalI fragment of pRDVCCB-CMV-dCas9-VPH-2A-Blast (Cellecta, Inc., Mountain View, USA). Complementary degenerate oligonucleotides were then used to replace the coding region of the C-terminal domain of […] (between Bsu36I and NotI). Random clones were selected, sequenced and tested for a correct open reading frame. A total of 55 clones were obtained with the correct open reading frame of […] and a permutation of the general sequence RN[KR][EDQ][VMIL][KR]KA[LIV][KRH][KR][LI][LIF][KRG][KR][KR]CC (SEQ ID NO: 822) as the C-terminal domain. All the different clones were compared to the wild-type sequence by the functional assay in HEK cells with the ligand Androstenone tested in a dose-response test.

Take `C[C@]12CC[C@@H](O)C[C@@H]1CC[C@@H]1[C@@H]2CC[C@]2(C)C=CC[C@@H]12` [androstenol, reference compound]: the “activation of OR7D4 variants” value (wild-type vs SEQ ID NO: 86) is recorded as “can only activate the modified version of the receptor”.
Consider “SEQ ID NO: 260 (RNKELRKALHKLLGRKCC; source 1..18: note = C-terminal domain sequence)”, for which the “EC2 (concentration for 2-fold luciferase induction)” value turned out to be 0.043 µM and the “EC2 Fold-improvement vs. wild-type” value stood at 39.74.
For “SEQ ID NO: 279 (RNKELKKALRKLIGKKCC; source 1..18: note = C-terminal domain sequence)” the same measures were 0.098 µM and 17.53.
Take “SEQ ID NO: 282 (RNRDVKKAIRRLFRRRCC; source 1..18: note = C-terminal domain sequence)”: the “EC2 (concentration for 2-fold luciferase induction)” value worked out at 0.007 µM and the “EC2 Fold-improvement vs. wild-type” value turned out to be 250.61.
Regarding “SEQ ID NO: 287 (RNREVKKAVKKLIRRKCC; source 1..18: note = C-terminal domain sequence)”, the “EC2 (concentration for 2-fold luciferase induction)” value amounted to 0.012 µM and the “EC2 Fold-improvement vs. wild-type” value stood at 144.06.
“SEQ ID NO: 304 (RNRDVRKALKRLLGRRCC; source 1..18: note = C-terminal domain sequence)”: the “EC2 (concentration for 2-fold luciferase induction)” value was determined as 0.006 µM and the “EC2 Fold-improvement vs. wild-type” value is reported as 292.59.
Regarding “SEQ ID NO: 305 (RNKDLKKAVKKLFGRKCC; source 1..18: note = C-terminal domain sequence)”, the “EC2 (concentration for 2-fold luciferase induction)” value stood at 0.131 µM and the “EC2 Fold-improvement vs. wild-type” value worked out at 13.15. Besides, the Fold induction luciferase (0.1 μM Androstenone) is recorded as 1.63. This molecule showed a Fold induction luciferase (1 μM Androstenone) of 10.13.
Consider “SEQ ID NO: 280 (RNREMRKAIKKIIKKKCC; source 1..18: note = C-terminal domain sequence)”, for which the “EC2 (concentration for 2-fold luciferase induction)” value was 0.009 µM and the “EC2 Fold-improvement vs. wild-type” value is recorded as 187.06.
“SEQ ID NO: 256 (RNREVRKAVHRLFKRKCC; source 1..18: note = C-terminal domain sequence)”: the “EC2 (concentration for 2-fold luciferase induction)” value stood at 0.004 µM and the “EC2 Fold-improvement vs. wild-type” value amounted to 385.42.
For “SEQ ID NO: 257 (RNKEMKKAIHKLFGKKCC; source 1..18: note = C-terminal domain sequence)” the same measures were 0.010 µM and 172.96.
“SEQ ID NO: 296 (RNREVKKALRRLFGKKCC; source 1..18: note = C-terminal domain sequence)”: the “EC2 (concentration for 2-fold luciferase induction)” value is 0.003 µM and the “EC2 Fold-improvement vs. wild-type” value was found to be 525.05.
As for “SEQ ID NO: 262 (RNKDVRKAVRKLIRRRCC; source 1..18: note = C-terminal domain sequence)”, the “EC2 (concentration for 2-fold luciferase induction)” value stood at 0.010 µM and the “EC2 Fold-improvement vs. wild-type” value is 165.32.
Take “SEQ ID NO: 300 (RNRDIRKAVKKLFGKKCC; source 1..18: note = C-terminal domain sequence)”: the “EC2 (concentration for 2-fold luciferase induction)” value was found to be 0.020 µM and the “EC2 Fold-improvement vs. wild-type” value is recorded as 87.76.
For “SEQ ID NO: 303 (RNRDMKKALKKLFRRRCC; source 1..18: note = C-terminal domain sequence)” the same measures were 0.011 µM and 150.37.
The corresponding values for “SEQ ID NO: 268 (RNREVRKALRRIIRKRCC; source 1..18: note = C-terminal domain sequence)” are 0.003 µM and 545.04.
For “SEQ ID NO: 258 (RNRDVKKAVHKLFRRKCC; source 1..18: note = C-terminal domain sequence)” the same measures were 0.011 µM and 152.59.
On to “SEQ ID NO: 267 (RNRDVKKAVRRLFRRKCC; source 1..18: note = C-terminal domain sequence)”, for which the “EC2 (concentration for 2-fold luciferase induction)” value came to 0.006 µM and the “EC2 Fold-improvement vs. wild-type” value amounted to 266.97.
For the molecule “SEQ ID NO: 278 (RNRDVRKALRRLFKKRCC; source 1..18: note = C-terminal domain sequence)”, the “EC2 (concentration for 2-fold luciferase induction)” value was 0.003 µM and the “EC2 Fold-improvement vs. wild-type” value is 522.64.
With “SEQ ID NO: 270 (RNKDVRKAVRRLIKRKCC; source 1..18: note = C-terminal domain sequence)”, the “EC2 (concentration for 2-fold luciferase induction)” value came out at 0.012 µM and the “EC2 Fold-improvement vs. wild-type” value came to 145.78.
On to “SEQ ID NO: 299 (RNRELKKAIRKLLKRKCC; source 1..18: note = C-terminal domain sequence)”, for which the “EC2 (concentration for 2-fold luciferase induction)” value came to 0.093 µM and the “EC2 Fold-improvement vs. wild-type” value is recorded as 18.62.
With “SEQ ID NO: 285 (RNKELKKALRRLIGRRCC; source 1..18: note = C-terminal domain sequence)”, the “EC2 (concentration for 2-fold luciferase induction)” value amounted to 0.042 µM and the “EC2 Fold-improvement vs. wild-type” value is recorded as 41.00. The same molecule displayed a Fold induction luciferase (0.1 μM Androstenone) of 3.18. In addition, the Fold induction luciferase (1 μM Androstenone) is 22.10.
Regarding “SEQ ID NO: 254 (RNREMRKALHRLLGKKCC; source 1..18: note = C-terminal domain sequence)”, the “EC2 (concentration for 2-fold luciferase induction)” value is 0.011 µM and the “EC2 Fold-improvement vs. wild-type” value was 156.27.
“SEQ ID NO: 281 (RNKEIKKAIKKIIKKRCC; source 1..18: note = C-terminal domain sequence)”: the “EC2 (concentration for 2-fold luciferase induction)” value turned out to be 0.029 µM and the “EC2 Fold-improvement vs. wild-type” value amounted to 60.06.
For “SEQ ID NO: 276 (RNRDLRKAVRRIFKKRCC; source 1..18: note = C-terminal domain sequence)”, the “EC2 (concentration for 2-fold luciferase induction)” value turned out to be 0.034 µM and the “EC2 Fold-improvement vs. wild-type” value was 50.55.
For the molecule “SEQ ID NO: 261 (RNRDVRKALRRILRRRCC; source 1..18: note = C-terminal domain sequence)”, the “EC2 (concentration for 2-fold luciferase induction)” value was 0.004 µM and the “EC2 Fold-improvement vs. wild-type” value turned out to be 427.69.
On to “SEQ ID NO: 273 (RNRDVRKAIKKLIRKRCC; source 1..18: note = C-terminal domain sequence)”, for which the “EC2 (concentration for 2-fold luciferase induction)” value was determined as 0.005 µM and the “EC2 Fold-improvement vs. wild-type” value stood at 373.12.
For “SEQ ID NO: 306 (RNKDVRKAVRRLFGRRCC; source 1..18: note = C-terminal domain sequence)” the same measures were 0.017 µM and 103.17.
Take “SEQ ID NO: 271 (RNRDLRKAVRKLFKKKCC; source 1..18: note = C-terminal domain sequence)”: the “EC2 (concentration for 2-fold luciferase induction)” value stood at 0.030 µM and the “EC2 Fold-improvement vs. wild-type” value is on record as 56.86.
“SEQ ID NO: 269 (RNKDIRKAVKKIFRRKCC; source 1..18: note = C-terminal domain sequence)”: the “EC2 (concentration for 2-fold luciferase induction)” value is 0.026 µM and the “EC2 Fold-improvement vs. wild-type” value is on record as 65.26.
In the case of “SEQ ID NO: 286 (RNRDVKKALRKLIGKRCC; source 1..18: note = C-terminal domain sequence)”, the “EC2 (concentration for 2-fold luciferase induction)” value came out at 0.003 µM and the “EC2 Fold-improvement vs. wild-type” value stood at 545.04.
Turning to “SEQ ID NO: 293 (RNKELRKAIRRLLRRRCC; source 1..18: note = C-terminal domain sequence)”, the “EC2 (concentration for 2-fold luciferase induction)” value is 0.068 µM and the “EC2 Fold-improvement vs. wild-type” value stood at 25.22.
In the case of “SEQ ID NO: 292 (RNKDVRKAVKRLLKKRCC; source 1..18: note = C-terminal domain sequence)”, the “EC2 (concentration for 2-fold luciferase induction)” value worked out at 0.018 µM and the “EC2 Fold-improvement vs. wild-type” value is listed as 94.88.
Consider “SEQ ID NO: 301 (RNKEVKKAIRKLFGRRCC; source 1..18: note = C-terminal domain sequence)”, for which the “EC2 (concentration for 2-fold luciferase induction)” value came to 0.013 µM and the “EC2 Fold-improvement vs. wild-type” value is 128.57.
With “SEQ ID NO: 295 (RNRELKKALRRLLRRRCC; source 1..18: note = C-terminal domain sequence)”, the “EC2 (concentration for 2-fold luciferase induction)” value stood at 0.033 µM and the “EC2 Fold-improvement vs. wild-type” value was determined as 51.89.
For “SEQ ID NO: 298 (RNRDMRKAIRKLFGRKCC; source 1..18: note = C-terminal domain sequence)” the same measures were 0.011 µM and 162.22.
